The record followed here is patent publication US5686583, “Specific antibodies against activated platelets, the preparation thereof and the use thereof in diagnosis and therapy” (Behringwerke Aktiengesellschaft, dated 1997).

For assay [1], the target named is platelet antigen recognized by MAb BW 2128 (human). Put plainly: reaction with platelets; method not further stated.
Another assay has as its target fibrinogen (Homo sapiens (Human), UniProt P02671-2). Put plainly: immunoprecipitation and Western blotting. (A western blot detects proteins with antibodies after separation by electrophoresis.)
A further assay addresses fibronectin (Homo sapiens (Human), UniProt P02751-8). The experiment in a line: immunoprecipitation and Western blotting.
The target in another assay is v. Willebrand factor (Homo sapiens (Human), UniProt P04275). Put plainly: Western blot.
Assay [2] addresses human thrombospondin (TSP) (human, UniProt P07996). The experiment in a line: Western blot.
Another assay deals with gP 140 (Homo sapiens (Human), UniProt P16109). Put plainly: Western blot.

B1: MAb BW 2128 (antibody, V domains shown)
VH: LQQSGAELVKPGASVTLSCKASGYTFTSYWMHWVKQRPGQGLEWIGEINPSNGRTNYNEKFKSKATLTVDKSSSTAYMHLSSLTSDDSAVYYCARGAGAGGYWGQGTTVTVSS
VL: QLTQSPAIMSASPGEKVTMTCSASSSVTYMHWCQQKSGTSPKRWIYDTSKLASGVPARFSGSGSGTSYSLTISSMEAEDAATYYCQQWNSNPLTFGAGTKLEI
As to B1, in assay [1], the fold stronger reaction with thrombin-activated than with non-activated platelets was over 10 ×. Besides, the binding result (with fibrinogen; with fibronectin; with v. Willebrand factor; in assay [2]; in the assay with gP 140) was “no binding” each time.
